Results: patent US6784155B1, “Inhibitor and stimulator of stem cell proliferation and uses thereof” (Wellstat Therapeutics Corporation, priority 1996, dated 2004)
Positions of bridges follow the written chain, without caps; N, C: chain ends. No end group written: not given here.

B1: MIP-1α: cytokine macrophage inflammatory protein 1-alpha, previously characterized stem cell inhibitor (protein, UniProt P10147 24-92, looked up)
C-C motif chemokine 3: SLAADTPTACCFSYTSRQIPQNFIADYFETSSQCSKPGVIFLTKRSRQVCADPSEEWVQKYVSDLELSA

Experiments:
CFU-GEMM = CFU-GEMM cycling assay, human umbilical cord blood cells; assay type: cell-based; conditions: Table 32, cord blood mononuclear cells
Procedure: In order to investigate the ability of purified INPROL from porcine bone marrow to affect cycling on human progenitors, umbilical cord blood cells were obtained. Either the total mononuclear cell fraction obtained after separation on Ficoll or the CD34^+ fraction obtained after fractionation on anti-CD34 affinity columns (CellPro Inc.) was used. Cells were incubated for 48 hours in vitro in the presence of interleukin 3 (IL-3) and stem cell factor (SCF) (100 ng/ml each) in order to ensure that the early stem cells were in cycle. After this preincubation, cycling assays were conducted as described in Example 14 for the mouse except that CFU-GEMM (instead of CFU-MIX) were counted on Day 18 after plating.
The human cord blood CFU-GEMM cycling assay was conducted as in Example 19. Specifically, mononuclear cells were isolated from human umbilical cord blood cells and adjusted to 24×10^4 cells/ml in IMDM tissue culture medium supplemented with 10% FBS, 100 ng/ml kit ligand and 100 ng/ml human IL-3. The cells were incubated for 48 hours at 37° C.
After incubation, cells were washed and resuspended in serun-free NDM at a concentration of 10^6 cells/ml. One ml of cells was added to each of two polypropylene tubes per condition and the cycling assay conducted as in Example 24 for mouse bone marrow. After the Ara C incubation cells were washed with cold NDM and adjusted to 10,000 to 20,000 cells per 0.5 ml IMDM and mixed with 5 ml Methocult H4433 (Stem Cell Technologies). Alternatively, Methocult H4435 methylcellulose medium (Stem Cell Technologies) was used in which case the cell concentration was adjusted to 2500-5000 cells per 0.5 ml IMDM. The cells were plated as in Example 24 and CFU-GEMM colonies scored on days 14-18.

[1] = Distribution of ubiquitin fusion proteins between soluble fraction and precipitate of E. coli lysate (SDS-PAGE); assay type: physicochemical; conditions: after centrifugation of the bacterial lysate
Procedure: To obtain protein for assay, 100 ml starter cultures in 250 ml shake flasks were grown from single colonies by overnight incubation (16-20 hours) in 2×YT medium with ampicillin (100 μg/ml), neomycin (10 μg/ml) and 1% glucose. Shaker flask cultures were maintained at 30° C. and 250 rpm in a New Brunswick environmental shaker incubator. The next morning the culture was diluted to liter with medium Cells were induced by IPTG addition to 1 mM (final dilution) at OD600=0.5 and harvested at OD600=0.8 by centrifugation. The harvested cells were resuspended in hypotonic lysis buffer (100 μl of 50 mM Tris, pH 10.0). The bacterial cells were lysed by subjecting the suspension to three cycles of freeze-thaw (dry ice-ethanol bath for freezing and 60° C. for thawing). The suspension was then sonicated for 10 min and centrifuged at 12,000 g for 10 min. The resulting supernatant was designated as “S1”. The cell pellet was resuspended in 50 mM Tris, pH10 and 2×SDS tricine loading buffer (Novex, San Diego, Calif.) (1:1). The mixture was then heated at 95° C. for 15 min and centrifuged at 12,000 g for 10 min. The portion of the precipitate capable of being resolubilized in this manner was called “P1”. The portion of the precipitate derived from the remaining pellet was called “P2”. P2 was resuspended in loading buffer as for P1. Samples from S1, P1 and P2 were analyzed by SDS-PAGE. […]

CFU-MIX [2] = assay: CFU-MIX cycling assay in vitro (Ara C kill); assay type: cell-based, mouse; conditions: Table 19, 100 ng/ml
Procedure: A similar assay can be performed in vitro, using the cycling status of CFU-MIX instead of CFU-S. The assay is performed as described above for the CFU-S assay except that cytosine arabinoside (Ara C, 30 micrograms/ml) is used as the cycle-specific toxic agent instead of high dose tritiated thymidine (see B. I. Lord in Haemopoiesis—A Practical Approach, N. G. Testa and G. Molineux (Eds.), IRL Press 1993; Pragnell et al. in Culture of Hematopoietic Cells, R. I. Freshney, I. B. Pragnell and M. G. Freshney (Eds.), Wiley Liss 1994) and a mouse strain with high endogenous cycling rates (Balb/c) is used instead of testosterone-treated BDFI mice.
(§1) 24 hours later (Day 1), varying doses of peptide 43-55 or vehicle were injected i.v. Bone marrow was harvested on Day 2 and the […] cycling assay conducted as in Example 14. Specifically, mice were sacrificed and single cell bone marrow suspensions prepared from the femurs. The cells were washed once and the concentration adjusted to 5×10^6 cells/ml in Fischer medium. For each test condition, one milliliter of cells was added to each of two polypropylene tubes. The tubes were incubated at 37° C. for 3 hours without (“Control”) or with (“Experimental”) the appropriate concentration of test substance. At the end of the incubation, 30 μg/ml of cytosine arabinoside (“Ara C” (Sigma)) was added to half of the tubes and the same volume of Fischer's medium was added to the others. The tubes were incubated for a further 1 hour at 37° C., after which they were placed on ice and washed twice with cold Fischer medium.
(§2) The cells were readjusted to 5×10^4-10^6/ml in Fischer's medium and 0.5 ml of cell suspension added to 5 ml of Methocult M3430 methylcellulose medium (Stem Cell Technologies, Vancouver, British Columbia). The mixture was vigorously mixed with a vortex and 1 ml was dispensed into each of five 35 mm dishes. The 35 mm dishes were in turn placed in a covered 150 mm dish with one open 35 mm dish containing sterile water. CFU-MIX colonies were counted with the use of an inverted microscope after 7 days of incubation at 37° C.
Differences in colony number between the tubes treated with medium versus the tubes treated with Ara C represent the percentage of cells in cycle under that condition according to the formula:
a=Number of CFU-MIX from tube incubated with medium alone
b=Number of CFU-MIX from tube incubated with Ara C

CFU-MIX [3] = assay: CFU-MIX cycling assay after in vivo injection into testosterone or 5FU treated mice; set-up: species or system mouse; conditions: Table 23, 5FU-pretreated animals, 0.5 ng i.v. per 20 gram mouse
Procedure: In order to test the ability of purified porcine hemoglobin chains to act in vivo, BDF1 mice were injected with testosterone propionate as described in Example 1. Twenty four hours later, mice received 500 ng of either pINPROL, porcine hemoglobin alpha chain (purified from peripheral red blood cells as in FIG. 21), porcine beta chain (purified from peripheral red blood cells as in FIG. 21) or the equivalent volume of carrier intravenously. Forty eight hours later the bone marrow from each mouse was harvested and the CFU-MIX assay conducted as described in Example 14.
To assess the stem cell inhibitory activity of peptide 43-55 in vivo, B6D2 F1 mice were pre-treated with testosterone propionate as described in Example 1 or with 5FU. Specifically, testosterone propionate (100 mg/kg body weight) was injected i.p. on Day 0 into mice. Alternatively, mice were injected on Day 0 with 5FU ([…] body weight).
as §1, §2
Differences in colony number between the tubes treated with medium versus the tubes treated with Ara C represent the percentage of cells in cycle under that condition according to the formula: […]

CFU-S = CFU-S proliferation assay, 3H-Thymidine suicide method (bone marrow incubated with test fractions); assay type: cell-based, mouse; conditions: Table 8, bone marrow from testosterone treated mice, 200 ng/ml
Procedure: For the detection of stem cells proliferation the number of CFU-S in S-phase of the cell cycle was measured by the ^3H-Thymidine “suicide” method (Becker et al., Blood 26:296-308, 1965).
Immature hematopoietic progenitors-Colony Forming Units in spleen (CFU-S)—can be detected in vivo by forming macroscopic colonies in the spleens of lethally irradiated mice, 8-12 days after the intravenous injection of hematopoietic cells (Till & McCulloch, 1961).
For the standard CFU-S proliferation assay the method of ^3H-Thymidine “suicide” is usually applied (Becker et al., 1965). The method is based on incorporation of radiolabelled Thymidine, (^3H-Thymidine) a precursor of DNA into cells during DNA synthesis. The CFU-S which are in S-phase of the cycle at the time of testing, are killed by the high radioactivity and therefore not able to form colonies in spleen.
The inhibitor testing can not be done with the bone marrow stem cell population from unstimulated animals, as far as the inhibitor only effects cycling CFU-S, which are as low as 7-10% of the total CFU-S population in the bone marrow of normal mice.
To stimulate CFU-S proliferation, phenylhydrazine (PHZ), or sublethal irradiation were used (Lord, 1976).
The TSP induced stimulation of CFU-S proliferation within 20-24 hours after injection and the effect could be seen for at least 7 days.
The procedure used for the screening of the fractions during purification of the Inhibitor was as follows:
Mice: BDF1 or CBF1 mice strains were used throughout all testing.
Donor mice were treated with a 10 mg/100 g dose of TSP by intraperitoneal injection of 0.2 ml/mouse in order to induce 30-35% of the CFU-S into S-phase.
Twenty-four hours later the bone marrow is taken from the femurs for the cell suspension preparation. […]
Recipient spleens are harvested on day 9-12 and fixed in Tellesnitsky's solution; the colonies are scored by eye score. The percentage of cells in S-phase are calculated using the formula. […]

HPP-CFC = HPP-CFC assay after 4 hour pre-incubation; assay type: cell-based, mouse; conditions: 200 ng/ml, day 14
Procedure: An in vitro assay for assessing murine reconstituting stem cells and early precursors is the high proliferative potential colony ([…]) assay; other related assays, e.g., CFU-A, CFU-GM, CFU-E, and CFU-GEMM, detect progressively restricted progenitor populations (M. Moore, Blood […]:2122-2128, 1991).
BDF1 mice were treated with 5-fluorouracil (200 mg/kg i.p.) before their bone marrow was assayed for HPP-CFC numbers. Cells were washed by centrifugation and incubated at densities of 10^6 to 5×10^6/ml in medium with either no added agent (Controls), pINPROL (25 ng/ml) or MIP-1α (200 ng/ml) for 4 hours. After incubation, cells were washed and plated in agar (0.3%) with 30% FCS and combined conditioned medium from 5637 and WEHI-3B cell lines (7.5% of each conditioned medium, as recommended by Sharp et al., 1991). Plating concentration was 5×10^4 cells/ml in 60 mm dishes.

mouse bone marrow cells = assay: Colony formation after pre-incubation of bone marrow cells from 5FU-treated mice; assay type: cell-based; conditions: 4 hours pre-incubation
Procedure: The purpose of this experiment was to compare the inhibitory effects of pre-incubation with pINPROL and MIP-1α on mouse bone marrow cells in vitro.
The following procedure was used:
in vivo: BDF1 mice, 6-15 weeks of age, are injected with 200 mg/kg 5FU i.p. 48 hours before harvesting marrow from the femurs.
in vitro: A single cell pooled suspension is counted and 5×10^6 cells are incubated in a total of 2 mls with or without pINPROL or MIP-1α, with 5% horse serum, IMDM media with added L-glutamine, at 37° C. and 5% CO2 for 4 hours. The cells are then washed twice and recounted. They are plated in methylcellulose in the following final conditions:
20 ng/ml recombinant murine IL-3
Plates were incubated for 11 days at 37° C. and 5% CO2 in 100% humidity. Colonies more than 50 cells were counted.

Molecule | % Kill (CFU-GEMM; 1 ng/ml) [%] | % Kill (CFU-GEMM; 10 ng) [%] | % Kill (CFU-GEMM; 100 ng/ml) [%] | fraction of bacterial lysate containing the peptide [1] | % Kill (CFU-MIX [2]) [%] | % Kill (CFU-MIX [3]) [%] | % Kill (CFU-S) [%] | % of Control (HPP-CFC) [%] | HPP-CFU (HPP-CFC) | Percent of Control (mouse bone marrow cells; colonies after 11 days) [%] | Colony Number (mouse bone marrow cells; colonies more than 50 cells after 11 days)
Cys-Phe-Pro-His-Phe-Asp-Leu-Ser-His-Gly-Ser-Ala-Gln-Val-Cys (CFPHFDLSHGSAQVC; disulfide 1-15 (inferred)) [Cyclic Peptide 43-55, cyclic derivative of the 43-55 peptide] | 32 | 0 | 11 | contained in the soluble fraction | 0 | 14 | – | – | – | – | –
B1 | – | – | – | – | – | – | 13 | 101 | 15.8 ± 0.9 | 114 | 35.25
